A short description of this series: FE-SEM self-assembly. The format is physicochemical. The note with it: HEPES pH 7.4, porphyrin 1.15 × 10^–3 M, peptide 2.3 × 10^–3 M, time of incubation 7 days.

As to “RGDSGAITIGH [RGDSGAITIGH + Py3P-Lys-NTA + Ni^2+]”, the self-assembled nanostructure morphology entry is “porous fibrillar network”.

The values above are taken from article PMC8771699 (ACS Omega, 2022).
